Literature values in article PMC4741949.

Target: EGFR wild-type (human) (UniProt P00533)
Settings: 2'F-pyrimidines (2'F-C, 2'F-U), RT-qPCR: 15 min 37 C, 100 ug/ml polyinosine, DPBS washes, flow cytometry: DPBS, 30 min, confocal: DMEM without FBS, UV cross-linking buffer not given

Question: For “GCCUUAGUAACGUGCUUUGAUGUCGAUUCGACAGGAGGC [CL4]”, which Kd is on record?
Answer: Its Kd is 0.01 µM.
